Test results taken from patent US20240376193A1 (BIOSCEPTRE AUST, published 2024).

T1: E200 peptide
T1 construct: Antigen derived from dysfunctional P2X7 receptor
T1 peptide: GHNYTTRNILPGLNITC


Experiments:
E200 peptide [1] = target: T1, E200 peptide; assay: binding kinetics on E200 peptide; method not stated; column 'affinity (nM) (E200)'
E200 peptide [2] = target: T1, E200 peptide; assay: binding kinetics on E200 peptide; method not stated

| Kd (E200 peptide [1]) | Kd (E200 peptide [2]) | Binder |
| --- | --- | --- |
| 127 nM | 127 nM | BIL03 VH only (other, Human single-domain VH tested without a light chain; also called BIL03 heavy chain; single domain heavy chain protein BIL03) VH: EVQLLESGGGLVQPGGSLRLSCAASGFTFRNHDMGWVRQAPGKGLEWVSAISGSGGSTYYANSVKGRFTISRDNSKNTLYLQMNSLRAEDTAVYYCAEPKPMDTEFDYRSPGTLVTVSS |
| 24 nM | 24.2 nM | BIL03-WT B1 (scFv format) (scFv, V domains shown, Tested in scFv format, so VH and VL sit in one polypeptide) VH: EVQLLESGGGLVQPGGSLRLSCAASGFTFRNHDMGWVRQAPGKGLEWVSAISGSGGSTYYANSVKGRFTISRDNSKNTLYLQMNSLRAEDTAVYYCAEPKPMDTEFDYRSPGTLVTVSS VL: DIQMTQSPSSLSASVGDRVTITCRASQYIYDYLNWYQQKPGKAPKLLIYAASYLQSGVPSRFSGSGSGTDFTLTISSLQPEDFATYYCQQYHHPSTFGQGTKVEIKR |
| 83 nM | 82.7 nM | BIL03-Germline B1 (other, also called G B1; GB1) VH: EVQLLESGGGLVQPGGSLRLSCAASGFTFRNHDMGWVRQAPGKGLEWVSAISGSGGSTYYANSVKGRFTISRDNSKNTLYLQMNSLRAEDTAVYYCAEPKPMDTEFDYRSPGTLVTVSS VL: DIQMTQSPSSLSASVGDRVTITCRASQSISSYLNWYQQKPGKAPKLLIYAASSLQSGVPSRFSGSGSGTDFTLTISSLQPEDFATYYCQQFDYMPLTFGQGTKVEIKR |
